{"source": "paper PMC10153752", "about": "“Exo1 protects DNA nicks from ligation to promote crossover formation during meiosis”", "binders": {"B1": {"name": "19 nt 5' flap substrate (AO3145 + AO3940 annealed to AO3144) (dsDNA)", "DNA 1": "ACAGCTACCGAATTCTGACTTGCTAGGACATCTTTGCCCACGTTGACCC", "DNA 2": "TCGATAGTCTCTAGATAGCATGTCCTAGCAAGTCAGAATTCGGTAGCGTG", "DNA 3": "GGGTCAACGTGGGCAAAG"}}, "target": "T1, exo1-D173A (Saccharomyces cerevisiae, UniProt P39875 1-702, D173A)", "T1 sequence": "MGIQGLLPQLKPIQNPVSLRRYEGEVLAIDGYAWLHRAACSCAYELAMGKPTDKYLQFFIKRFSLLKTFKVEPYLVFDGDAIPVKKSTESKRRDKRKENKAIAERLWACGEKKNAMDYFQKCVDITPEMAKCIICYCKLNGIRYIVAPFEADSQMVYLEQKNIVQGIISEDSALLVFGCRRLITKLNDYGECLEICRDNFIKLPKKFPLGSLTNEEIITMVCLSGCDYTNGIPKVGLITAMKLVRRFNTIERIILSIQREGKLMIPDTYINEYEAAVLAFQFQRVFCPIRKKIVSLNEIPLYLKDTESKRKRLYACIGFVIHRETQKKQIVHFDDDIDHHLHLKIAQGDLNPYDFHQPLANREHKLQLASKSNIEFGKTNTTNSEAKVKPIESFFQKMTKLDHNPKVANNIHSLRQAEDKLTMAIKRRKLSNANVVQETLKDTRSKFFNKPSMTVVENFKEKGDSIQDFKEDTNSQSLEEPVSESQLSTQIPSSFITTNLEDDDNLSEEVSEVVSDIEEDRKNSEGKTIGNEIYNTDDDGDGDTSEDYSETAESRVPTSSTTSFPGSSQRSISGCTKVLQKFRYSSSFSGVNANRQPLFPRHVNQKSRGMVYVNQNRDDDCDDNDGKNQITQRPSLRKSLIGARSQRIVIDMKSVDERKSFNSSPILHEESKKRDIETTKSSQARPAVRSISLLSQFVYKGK", "experiment": "filter binding; no added metal, 0.01 mM EDTA; 15 nM DNA, 35 mM NaCl, 20 mM Tris pH 7.5, 0.04 mg/ml BSA, 0.01 mM EDTA, 0.1 mM DTT, 60 ul, 10 min at 30 C; KOH-treated nitrocellulose filter binding", "conditions": "protein: recombinant; tags: FLAG; label: 5'-32P on AO3144 (8% labeled); nicked duplex with 19 nt 5' flap (AO3145 1-19); last 3 nt of AO3145 mismatch the 5' end of AO3144", "data": [{"binder": "B1", "values": [{"measurement": "binding result", "result": "binds"}]}]}
